From the nanobody polyreactivity screen of Harvey et al. (2022)

Experiment: yeast display, Sf9 membrane polyspecificity reagent, FACS + sequencing; frameworks hold sequencing errors
How it was run: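 Galactose-induced (36–48 hours) yeast carrying a synthetic nanobody display library were exposed to 10% biotinylated, detergent-solubilized Sf9 membrane reagent at 4 °C for 1 hour. FACS followed streptavidin microbead enrichment, using low and high (top ~1%) gates for expression (anti-HA) and reagent binding (streptavidin). Colony PCR, MiSeq 2 × 250 sequencing and CDR-length filtering followed. Labels for polyreactivity reflect the gate of origin.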
In the case of “QVQLVESGGGLVQAGGSLRLSCAASGSTFTGYAMGWYRQAPGKERELVAAISRSGGSTSYADSVKGRFTISRDNAKNTVYLQMNSLKPEDTAVYYCAAQVQGTTRAKQRGGIGELDYWGQGTQLTVSS”, the “polyreactivity (PSR sort gate)” value is reported as “low polyreactivity”. For “QVQLVESGGGLVQAGGSLRLSCAASGSTFTGYAMGWYRQAPGKERELVAAISRSVGRTYYADSVKGRFTISRDNAKNTVYLQMNSLKPEDTAVYYCAADVYLTGSRNYYWGQGTQVTVSS”, the “polyreactivity (PSR sort gate)” value was “high polyreactivity”. In the case of “QVQLVESGGGLVQAGGSLRLSCAASGSTFTGYAMGWYRQAPGKERELVAAITRGGSTYYADSVKGRFTISRDNAKNTVYLQMNSLKPEDTAVYYCAAKPSSREPTGPRYYYWGQGTQVTVSS”, the “polyreactivity (PSR sort gate)” value is reported as “high polyreactivity”. In the case of “QVQLVESGGGLVQAGGSLRLSCAASGSTFTGYTMGWYRQAPGKERELVAAITYRGGSTYYADSVKGRFTISRDNAKITDYLQMNSLIPEDTAVYYCAAVPEYYEYSPYDYWGQGTQVTVSS”, the “polyreactivity (PSR sort gate)” value is reported as “low polyreactivity”. With “QVQLVESGGGLVQAGGSLRLSCAASGSTFTGYTMGWYRQAPGKERELVAAITYRGGSTYYADSVKGRFTISRDNAKNTVYLQMNSLKPEDSAVYYCAAVAVYYEYSPYDYWGQGTQLTVSS” the “polyreactivity (PSR sort gate)” value was “low polyreactivity”. With “QVQLVESGGGLVQAGGSLRLSCAASGSTFTHYAMGWYRQAPGKERELVAAISWGGGTTRYADSVKGRFTISRDNAKNTVYLQMNSLKPEDTAVYYCAAYRTHGPPRAIRFDYWGQGTQVTVSS” the “polyreactivity (PSR sort gate)” value was “high polyreactivity”. With “QVQLVESGGGLVQAGGSLRLSCAASGSTFTIYAMGGYRQAPGKERELVAAITRGGSTNYADSVKGRFTISRDNAKNTVYLQMNSLKPEDTAVYYCNKVVPGYSAAKYDYWGQGTQVTVSS” the “polyreactivity (PSR sort gate)” value was “high polyreactivity”. For “QVQLVESGGGLVQAGGSLRLSCAASGSTFTIYAMGWYRQAPGKERELVAAITFSGDRTYYADSVKGRFTISRDNAKNTVFLQMNSLKPEDTAVYYCAAKSSTKQRKYYWGQGTQVTVSS”, the “polyreactivity (PSR sort gate)” value was “high polyreactivity”. For “QVQLVESGGGLVQAGGSLRLSCAASGSTFTKNAMGWYRQAPGKERELVAAISFSGGSTYYADSVKGRFTISRDNAKNTVYLQMNSLKPEHTAVYYCAADPHRALPRFDYWGQGTQVTVSS”, the “polyreactivity (PSR sort gate)” value was “low polyreactivity”. With “QVQLVESGGGLVQAGGSLRLSCAASGSTFTKNAMGWYRQAPGKERELVVVINRSGTSTYYADSVKGRFTISRDNAKNTVYLQMNSLKPEDTAVYYCATKYARTAGGGYYWGQGTQVTVSS” the “polyreactivity (PSR sort gate)” value was “high polyreactivity”. With “QVQLVESGGGLVQAGGSLRLSCAASGSTFTKYAMGWYRQAPGKERELVAAISRSGGGTYYADSVKGRFTISRDNAKNTVYLQMNILKPEDTAVYYCNAALFRGAQFDYWGQGTQVTVSS” the “polyreactivity (PSR sort gate)” value was “high polyreactivity”. With “QVQLVESGGGLVQAGGSLRLSCAASGSTFTLNAMGWYRQAPGKERELVAAITTSGGSTYYADSVKGRFTISRDNAKNTVYLQMNSLKPEDTAVYYCNADGPWREVERPFRKEGNYWGQGTQVTVSS” the “polyreactivity (PSR sort gate)” value was “low polyreactivity”. For “QVQLVESGGGLVQAGGSLRLSCAASGSTFTNNGMGWYRQAPGKERELVATISWDGDSTYYADSVKGRFTISRDNAKNTVYLQMNSLKPEDTAVYYCAADEWGSDSALNFEYWGQGTQVTVSS”, the “polyreactivity (PSR sort gate)” value was “low polyreactivity”. In the case of “QVQLVESGGGLVQAGGSLRLSCAASGSTFTNYAMGWYRQAPGKERELLAAINNDRTNYADSVKGRFTISRDNAMNTVYLQMNSLKPEDTAVYYCAARLGGRRRFGYWGQGTQVTVSS”, the “polyreactivity (PSR sort gate)” value is reported as “high polyreactivity”. With “QVQLVESGGGLVQAGGSLRLSCAASGSTFTPNAMGWYRQAPGKERELVAAIRGLNGRTYYADSVKGRFTISRDNAKNTVYLQMHSLKPEDTAVYYCAAGGYSYYFAWHDYWGQGTQVTVSS” the “polyreactivity (PSR sort gate)” value was “low polyreactivity”. With “QVQLVESGGGLVQAGGSLRLSCAASGSTFTPYAMGWYRQAPAKERELVAAITSGGPTNYADSVKGRFTISRDNAKNTVYLQMNSLKPEDTAVYYCNAEYLYWWEIYDYWGQGNQVTVSS” the “polyreactivity (PSR sort gate)” value was “high polyreactivity”.
